The values that follow come from US11702475B2, “Cysteine engineered fibronectin type III domain binding molecules” (Janssen Biotech, Inc., priority 2013, dated 2023).

Entries after “also recorded” stand apart in the source; their conditions may differ.

For data set [1], the system named is H292-HGF tumor xenografts. As to the kind of experiment: Tumor efficacy study with bispecific EGFR/c-Met molecules of variable affinity. In kind it is in vivo, SCID Beige mice. The note with it: 25 mg/kg three times per week. As for the experimental part:
One week after implantation, mice were stratified into groups with equivalent tumor volumes (mean tumor volume=77.9+/−1.7 mm^3). Mice were dosed three times per week with the bispecific molecules and tumor volumes were recorded twice weekly.

The conditions of data set [2]: mouse, in vivo, ip.
Protocol: SCID Beige mice were subcutaneously inoculated with NCI-H292 cells expressing human HGF (2.0×10^6 cells in Cultrex (Trevigen) in a volume of 200 μL) on the dorsal flank of each animal. Tumor measurements were taken twice weekly until tumor volumes ranged between 150-250 mm^3. […] At 6h or 72h after dosing, tumors were extracted and immediately frozen in liquid nitrogen. […] Immediately after collection, the blood samples were centrifuged and the resulting plasma was transferred to sample tubes and stored at −80° C. Tumors were weighed, cut into small pieces, and lysed in Lysing Matrix A tubes (LMA) containing RIPA buffer with HALT protease/phosphatase inhibitors (Pierce), 50 mM sodium fluoride (Sigma), 2 mM activated sodium orthovanadate (Sigma), and 1 mM PMSF (MesoScale Discovery). Lysates were removed from LMA matrix and centrifuged to remove insoluble protein. The soluble tumor protein was quantified with a BCA protein assay and diluted to equivalent protein levels in tumor lysis buffer. Phosphorylated c-Met, EGFR and ERK were measured using assay plates from MesoScale Discovery (according to Manufacturer's protocol and as described above).
For data set [3] the following is noted: mouse, in vivo.
Protocol: (§1) At the time of routine monitoring, the animals were checked for any effects of tumor growth and treatments on normal behavior, such as mobility, visual estimation of food and water consumption, body weight gain/loss (body weights were measured twice weekly), eye/hair matting and any other abnormal effect.
(§2) Animals for which the body weight loss exceeded 20%, or for which the mean tumor size of the group exceeds 2000 mm^3 were euthanized. The study was terminated after two weeks of observation after the final dose.
The nature of data set [4]: Body weight and tolerability in the H292-HGF xenograft study. The note with it: 25 mg/kg.
Protocol: as §1, §2
For data set [5], the system named is H292-HGF human lung cancer xenograft. As to the kind of experiment: Efficacy of bispecific molecule and other inhibitors in subcutaneous H292-HGF xenograft model. The class given is in vivo, SCID/Beige mice.
Protocol: The H292-HGF cells were maintained in vitro in RPMI1640 medium supplemented with fetal bovine serum (10% v/v), and L-glutamine (2 mM) at 37° C. in an atmosphere of 5% CO2 in air. The cells were routinely subcultured twice weekly by trypsin-EDTA treatment. The cells growing in an exponential growth phase were harvested and counted for tumor inoculation.
Each mouse was inoculated subcutaneously at the right flank region with H292-HGF tumor cells (2×10^6) in 0.1 ml of PBS with cultrex (1:1) for tumor development. The treatments were started when the mean tumor size reached 139 mm^3. […] The date of tumor cell inoculation was denoted as day 0.
Before commencement of treatment, all animals were weighed and the tumor volumes were measured. Since the tumor volume can affect the effectiveness of any given treatment, mice were assigned into groups using randomized block design based upon their tumor volumes. […] The randomized block design was used to assign experimental animals to groups. First, the experimental animals were divided into homogeneous blocks according to their initial tumor volume. Secondly, within each block, randomization of experimental animals to treatments was conducted.
The major endpoint was whether tumor growth can be delayed or tumor bearing mice can be cured. Tumor size was measured twice weekly in two dimensions using a caliper, and the volume was expressed in mm^3 using the formula: V=0.5 a×b^2 where a and b are the long and short diameters of the tumor, respectively. The tumor size was then used for calculations of both T−C and T/C values. T−C was calculated with T as the time (in days) required for the mean tumor size of the treatment group to reach 1000 mm^3, and C was the time (in days) for the mean tumor size of the control group to reach the same size. The T/C value (in percent) was an indication of antitumor efficacy; T and C were the mean volume of the treated and control groups, respectively, on a given day. Complete tumor regression (CR) is defined as tumors that are reduced to below the limit of palpation (62.5 mm^3). Partial tumor regression (PR) is defined as tumors that are reduced from initial tumor volume. A minimum duration of CR or PR in 3 or more successive tumor measurements is required for a CP or PR to be considered durable.
Statistical analyses of difference in tumor volume among the groups were evaluated using a one-way ANOVA followed by individual comparisons using Games-Howell (equal variance not assumed). All data were analyzed using SPSS 18.0. p<0.05 was considered to be statistically significant.

B1: ECB39: bispecific SEQ ID 121: P53A1R5-17V2, (AP)5, P114AR7P94-A3, linked to albumin binding domain (protein)
chain: MLPAPKNLVVSEVTEDSARLSWADPHGFYDSFLIQYQESEKVGEAIVLTVPGSERSYDLTGLKPGTEYTVSIYGVHNVYKDTNMRGLPLSAIFTTAPAPAPAPAPLPAPKNLVVSRVTEDSARLSWTAPDAAFDSFWIRYFEFLGSGEAIVLTVPGSERSYDLTGLKPGTEYVVNIMGVKGGKISPPLSAIFTTAPAPAPAPAPLAEAKVLANRELDKYGVSDYYKNLINNAKTVEGVKALLDEILAALP
modifications: Bispecific EGFR/c-Met binding molecule
Turning to B1, the “tumor growth / tumor growth inhibition (in words)” value in data set [1] is reported as “showed the most efficacy”. Also, in data set [2], the “tumor accumulation (in words)” value is given as “significantly more tumor accumulation at 6 hours relative to the other molecules”.

B2: ECB38: bispecific SEQ ID 120: P54AR4-83V2, (AP)5, P114AR7P94-A3, linked to albumin binding domain (protein)
chain: MLPAPKNLVVSEVTEDSARLSWDDPWAFYESFLIQYQESEKVGEAIVLTVPGSERSYDLTGLKPGTEYTVSIYGVHNVYKDTNMRGLPLSAIFTTAPAPAPAPAPLPAPKNLVVSRVTEDSARLSWTAPDAAFDSFWIRYFEFLGSGEAIVLTVPGSERSYDLTGLKPGTEYVVNIMGVKGGKISPPLSAIFTTAPAPAPAPAPLAEAKVLANRELDKYGVSDYYKNLINNAKTVEGVKALLDEILAALP
modifications: Bispecific EGFR/c-Met binding molecule
For B2, in data set [1], the “tumor growth / tumor growth inhibition (in words)” value is recorded as “showed the most efficacy”. Besides, the “toxicity / body weight loss / tolerability (in words)” value in data set [3] is recorded as “Slight toxicity”. The “mice euthanized when BWL>20% during the treatment period” value in data set [4] is 3 mice. For the same molecule, the “mice in which the treatment was tolerated” value in data set [4] (3 times/week x 3 weeks) is 7 out of 10. The mean tumor size in data set [5] (day 23 after tumor inoculation, ECB38 25 mg/kg, Crizotinib 50 mg/kg, Erlotinib 50 mg/kg, Cetuximab 1 mg/mouse) amounted to 23 mm^3. Besides, in data set [5] (doses as in E46), the “antitumor activity (in words)” value is “complete tumor regression (CR) in all mice; also recorded: complete response”.
